What was measured:
[1] = target: T1, huKv1.3 (Homo sapiens, UniProt P22001); experiment: QPatch automated whole-cell patch-clamp, CHO cells stably expressing huKv1.3 (Example 8); format: cell-based
T1 construct: host or cells: CHO
Procedure: (§1) Knottin Kv 1.3 and ASIC1a blockers expressed in the KnotBody format (see examples 6 and 7) were tested for their ability to inhibit the function of the ion channel targets. The effect of these KnotBodies on cells expressing the human Kv 1.3 (huKv1.3) or human ASIC1a channels was assessed using QPatch automated whole-cell patch-clamp electrophysiology (Sophion).
For the testing of Kv1.3, CHO cells stably expressing huKv1.3 (Charles River Lab) were analysed using the QPatch electrophysiology assay in the presence or absence of the KnotBody fusions or the antibody isotypes (negative) controls. Internal and external physiological solutions were freshly prepared prior to the assay. The extracellular solution contained 145 mM NaCl, 4 mM KCl, 2 mM CaCl2, 1 mM MgCl2, 10 mM HEPES and 10 mM glucose; the pH was adjusted to 7.4 with NaOH; the osmolarity was ~ 305 mOsm/L. The intracellular solution contained: KF (120 mM), KCl (20 mM), HEPES (10 mM) and EGTA (10 mM); the pH was adjusted to 7.2 with KOH; osmolarity was ~ 320 mOsm/L.
A series of depolarising voltage (channel activating) pulses were used to monitor the channel currents upon adding control (extracellular solution) to define a control baseline of current activity. To these measured control currents ascending concentrations of KnotBodies or parental antibody isotypes (control molecules) were applied to the external bathing solution (2.2 µM - 0.5 nM, diluted in the extracellular solution). KnotBodies KB_A12 and KB_A07 (EETI-II fusions) were used as isotype controls for the testing. From a holding voltage of -80 mV a depolarising, activating voltage pulses of +30 or +80 mV were applied for 300 ms, every 5 or 10 seconds. The elicited, maximum outward current values measured during the activating step for each solution exchange period were averaged (n = 3 - 8 for each concentration applied) and plotted as concentration-response curves. KB_A07_ShK, KB_A12_ShK and KB_A07_Kaliotoxin (KTX) fusion proteins all inhibited the huKv1.3 currents in a concentration dependent manner with IC50S of approximately 20 nM, 40 nM and 900 nM respectively.

[2] = target: T2, huASIC1a (Homo sapiens, UniProt P78348); experiment: QPatch electrophysiology, HEK293 cells stably expressing huASIC1a; format: cell-based; settings: ASIC1a current at pH 6.0 after 15-20 minutes KnotBody pre-incubation, 2.3-6.6 µM
T2 construct: host or cells: HEK293
T2 sequence (P78348 1-528): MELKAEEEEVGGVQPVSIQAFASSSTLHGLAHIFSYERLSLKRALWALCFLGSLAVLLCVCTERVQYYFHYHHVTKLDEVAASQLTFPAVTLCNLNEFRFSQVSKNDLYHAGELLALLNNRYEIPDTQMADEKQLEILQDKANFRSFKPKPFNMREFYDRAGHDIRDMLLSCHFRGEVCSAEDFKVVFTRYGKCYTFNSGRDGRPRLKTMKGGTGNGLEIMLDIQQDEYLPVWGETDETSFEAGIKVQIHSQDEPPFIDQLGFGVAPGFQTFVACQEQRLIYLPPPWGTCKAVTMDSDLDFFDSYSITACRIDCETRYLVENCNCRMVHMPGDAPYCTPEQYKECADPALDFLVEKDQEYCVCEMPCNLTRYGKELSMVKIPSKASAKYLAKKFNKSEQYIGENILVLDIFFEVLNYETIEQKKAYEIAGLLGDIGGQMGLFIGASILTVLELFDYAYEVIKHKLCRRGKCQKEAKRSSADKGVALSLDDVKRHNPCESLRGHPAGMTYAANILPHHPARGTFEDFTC
Procedure: as §1
To functionally assess the ASIC1a KnotBodies, HEK293 cells stably expressing huASIC1a (Sophion) were analysed using a QPatch electrophysiology assay in the presence or absence of the KnotBody fusions (using KB_A12 as a recipient and replacing the original EETI-II donor as shown in Table 8). The “parental” KB_A12 with the EETI-II donor was used as a negative control. Internal and external physiological solutions were freshly prepared prior to the assay. The extracellular solution contained 145 mM NaCl, 4 mM KCl, 2 mM CaCl2, 1 mM MgCl2, 10 mM HEPES and 10 mM glucose; the pH was adjusted to 7.4 with NaOH (for control, resting-state pH) or 6.0 with MES (for acidic, activating-state pH); the osmolarity was ~ 305 mOsm/L. The intracellular solution contained: CsF (140 mM), HEPES (10 mM), NaCl (10 mM) and EGTA/CsOH (1 mM/5 mM); the pH was adjusted to 7.3 with CsOH; osmolarity was ~ 320 mOsm/L.
Throughout ASIC 1a recordings the recording cell membrane voltage was clamped at -60 mV. ASIC1a baseline control currents were elicited by applying external solution at activating pH 6.0 for 3000 ms. This activating pH application was repeated three further times, giving four baseline control ASIC1a currents. The recording cells were then pre-incubated with KnotBody diluted in external solution at pH 7.4 for 15-20 minutes. Following this KnotBody pre-incubation the same concentration of KnotBody in external solution at activating pH 6.0 was applied to the cell recording.
At the end of each KnotBody incubation and subsequent ASIC1a current activation, a full blocking concentration (300 nM) of the ASIC1a knottin inhibitor PcTx1 (positive control) was perfused onto the cell recording and a final activating pH 6.0 external solution was applied. The percentage remaining signal between activating pH 6.0 baseline (i.e. pre-KnotBody) and post-KnotBody incubation was determined.

[3] = system: trypsin; experiment: Phage TRF binding assay on immobilised biotinylated trypsin (monoclonal phage ELISA); settings: EETI-II in 5-3 frame, value in brackets after clone name
Procedure: Phage display technology facilitates isolation of binders to any given target from large combinatorial repertoires based on proteins and peptides that can be presented on the surface of filamentous phage^105. In order to isolate functional knottin-antibody fusions from the KnotBody libraries multiple rounds of phage display selections on trypsin (cognate antigen for the EETI-II donor) were carried out. Phage particles were prepared by rescuing KnotBody libraries using trypsin cleavable helper phage ^102,106Two rounds of phage display selections were performed on 10 µg/ml biotinylated trypsin immobilised on Streptavidin (for Round-1) or Neutravidin (for round-2) coated Maxisorp™ immunotubes (Thermo Scientific, Cat No. 444202). In both rounds of selection, phage libraries were pre-incubated with streptavidin coated paramagnetic beads (Thermo Fisher Scientific, Cat. No. 11205D). These beads were removed prior to the addition the phage to the antigen tubes to limit the streptavidin binders entering the selection. Polyclonal phage preparations from round-2 selection outputs were analysed for trypsin binding using a time resolved fluorescence (TRF) binding assay. In this assay, polyclonal phage binding to biotinylated trypsin immobilised on neutravidin (Thermo Fisher Scientific, Cat. No 31000) coated Maxisorp™ plates (Thermo Scientific, Cat. No. 437111) was detected using a mouse anti-M13 antibody (GE Healthcare, Cat. No. 27-9420-01) followed by europium conjugated anti-mouse antibody (Perkin Elmer, Cat. No. AD0124).
In order to identify monoclonal KnotBodies with desired binding characteristics, 94 individual clones derived from 2 rounds of selection using EETI-II CDR1 or CDR2 libraries were picked into 96 well culture plates and phage were prepared from each clone. Methods for screening by monoclonal phage ELISA are known in the art^107. […] Clones with >3x binding signal above background were picked as positive clones and sequenced to identify unique clones. 14 and 42 unique binders were identified from EETI-II CDR1 and EETI-II CDR2 libraries respectively (Table 1). 18 binders from the EETI-II CDR2 library and 3 binders from the EETI-II-CDR1 library were chosen for further characterisation based on their VL and linker sequence diversity. These binders were assigned new clone identification numbers (Table 2).
The trypsin binding capability of EETI-II is attributed to proline (Pro3) and arginine (Arg4) residues present in its loop1 (GCPRILMRC; SEQ ID NO: 68). […] Monoclonal phage was prepared from the 21 selected clones and their mutant equivalents. […] Replacement of the trypsin-binding residues of EETI-II abolished the ability of all KnotBody clones to bind to trypsin (Table 3). In order to confirm that the loss of trypsin binding was not due to reduced expression or display of pIII fusion phage was prepared from 11 (randomly chosen) KnotBodies and their GlyAla variants were analysed on a western blot using an antibody which recognises the product of gene 3 (pIII) using an anti-pIII antibody (MoBiTec GmbH) (FIG. 6).
Bovine antibodies have been described with natural ultra-long VH CDR3s containing a solvent exposed double stranded antiparallel sheet approximately 20 A° in length (referred to as the stalk) presenting a folded domain stabilised by 3 disulfide bonds (referred to as the Knob)^10. Zhang and colleagues have shown that the Knob domains of these cow ultra-long VH CDR3 antibodies (ULVC-Ab) can be replaced with other folded proteins such as erythropoietin^13. In this example, we assess the ability of a cow ULVC-Ab to present functional knottin fusions on phage in comparison with a KnotBody. In order to create a Knottin-cow UCLA fusion, the sequence between the first and the last cysteines of the knob region of the Cow ULVC-Ab BLV1H12 was replaced with the sequence of the trypsin binding knottin; EETI-II (EETI-II cow ULVC-Ab). A gene fragment encoding this construct was synthesised (Integrated DNA technologies, Table 21). […]

[4] = Kv1.3 channels, IgG KnotBody, Table 11A
[5] = huKv1.3 currents, text of Example 8, approximately

T1 sequence (P22001 whole entry): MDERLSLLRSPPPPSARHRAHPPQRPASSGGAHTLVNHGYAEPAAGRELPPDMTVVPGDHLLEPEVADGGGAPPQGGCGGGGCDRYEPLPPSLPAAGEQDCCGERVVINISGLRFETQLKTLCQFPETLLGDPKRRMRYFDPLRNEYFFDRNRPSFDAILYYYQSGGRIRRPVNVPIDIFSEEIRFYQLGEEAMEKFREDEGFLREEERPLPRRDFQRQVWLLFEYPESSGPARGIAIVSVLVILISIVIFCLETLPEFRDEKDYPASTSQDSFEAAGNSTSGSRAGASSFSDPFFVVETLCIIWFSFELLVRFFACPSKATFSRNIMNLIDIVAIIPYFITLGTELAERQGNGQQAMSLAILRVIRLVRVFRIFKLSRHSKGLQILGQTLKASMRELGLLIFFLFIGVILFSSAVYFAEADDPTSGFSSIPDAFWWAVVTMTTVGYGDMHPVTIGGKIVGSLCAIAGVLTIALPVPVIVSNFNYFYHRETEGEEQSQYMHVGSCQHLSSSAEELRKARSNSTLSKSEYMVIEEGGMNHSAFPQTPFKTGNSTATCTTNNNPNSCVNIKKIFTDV

Row | Molecule | IC50 [1, 4] | IC50 [1, 5] | % current remaining [2] | other results
1 | KB_A07_ShK: ShK toxin in VL CDR2 of KB_A07, IgG1 (antibody, V domains shown) VH: EVQLVESGGGLVRPGGSLRLSCAASGFTFSSYAMSWVRQAPGKGLEWVSAISGSGGSTYYADSVKGRFTISRDNTKNSLYLQMTSLRADDTAFYYCVKDFGPGYGTGWFDYWGPGTLVTVSS VL: DIQMTQSPSSLSASVGDRVTITCRASQSISSYLNWYQQKPGKAPKLLIYAAGVRSCIDTIPKSRCTAFQCKHSMKYRLSFCRKTCGTCSRSGVPSRFSGSGSGTDFTLTISSLQPEDFATYYCQQGASPPYTFGQGTKVEIKR | 40 nM | ~20 nM | – | –
2 | KB_A07_KTX: kaliotoxin in VL CDR2 of KB_A07, IgG1 (antibody, V domains shown) VH: EVQLVESGGGLVRPGGSLRLSCAASGFTFSSYAMSWVRQAPGKGLEWVSAISGSGGSTYYADSVKGRFTISRDNTKNSLYLQMTSLRADDTAFYYCVKDFGPGYGTGWFDYWGPGTLVTVSS VL: DIQMTQSPSSLSASVGDRVTITCRASQSISSYLNWYQQKPGKAPKLLIYAAGVGVEINVKCSGSPQCLKPCKDAGMRFGKCMNRKCHCTPKSRSGVPSRFSGSGSGTDFTLTISSLQPEDFATYYCQQGASPPYTFGQGTKVEIKR | 900 nM | ~900 nM | – | –
3 | KB_A12_PcTx1: PcTx1 in VL CDR2 of KB_A12 (antibody) VH: EVQLVESGGGLVRPGGSLRLSCAASGFTFSSYAMSWVRQAPGKGLEWVSAISGSGGSTYYADSVKGRFTISRDNTKNSLYLQMTSLRADDTAFYYCVKDFGPGYGTGWFDYWGPGTLVTVSS VL: QSVLTQPPSVSEAPRQRVTITCSGSSSNIGNNAVNWYQQLPGKAPKLLIYAAGREDCIPKWKGCVNRHGDCCEGLECWKRRRSFEVCVPKTPKTANSGVSDRFSAAKSGTSASLAINGLRSEDEADYYCAAWDDSLNGYVFGTGTKLTVLG | – | – | 4.8% | –
4 | KB_A07_PcTx1: PcTx1 in VL CDR2 of KB_A07 (antibody, V domains shown) VH: EVQLVESGGGLVRPGGSLRLSCAASGFTFSSYAMSWVRQAPGKGLEWVSAISGSGGSTYYADSVKGRFTISRDNTKNSLYLQMTSLRADDTAFYYCVKDFGPGYGTGWFDYWGPGTLVTVSS VL: DIQMTQSPSSLSASVGDRVTITCRASQSISSYLNWYQQKPGKAPKLLIYAAGVEDCIPKWKGCVNRHGDCCEGLECWKRRRSFEVCVPKTPKTSRSGVPSRFSGSGSGTDFTLTISSLQPEDFATYYCQQGASPPYTFGQGTKVEIKR | – | – | 4.8% | % current remaining ([2]; listed as KB A07 PcTx1): 6.2%
5 | KB_A12_Mba-1: Mambalgin-1 in VL CDR2 of KB_A12 (antibody) VH: EVQLVESGGGLVRPGGSLRLSCAASGFTFSSYAMSWVRQAPGKGLEWVSAISGSGGSTYYADSVKGRFTISRDNTKNSLYLQMTSLRADDTAFYYCVKDFGPGYGTGWFDYWGPGTLVTVSS VL: QSVLTQPPSVSEAPRQRVTITCSGSSSNIGNNAVNWYQQLPGKAPKLLIYAAGRLKCYQHGKVVTCHRDMKFCYHNTGMPFRNLKLILQGCSSSCSETENNKCCSTDRCNKANSGVSDRFSAAKSGTSASLAINGLRSEDEADYYCAAWDDSLNGYVFGTGTKLTVLGQP | – | – | same level of current as the KB_A12 negative control | % current remaining ([2]; listed as KB A12 Mba-1): 69.2%
6 | F01: KnotBody with alternative 5-3 framing of EETI-II, VL CDR2 (protein, F01 (101798), KnotBody with alternative 5-3 framing of EETI-II, VL CDR2) DIQMTQSPSSLSASVGDRVTITCRASQSISSYLNWYQQKPGKAPKLLIDAAGECGPNGFCGSGSDGGVCPRINMRCKQDSDCLAGCGRDSGVPSRFSGSGSGTDFTLTISSLQPEDFATYYCQQSYSTPWTFGQGTKVEIKRT | – | – | – | ELISA signal from monoclonal phage ELISA [3]: F01

— patent publication US20230331827A1, “POTASSIUM CHANNEL INHIBITORS” (priority 2017, published 2023)
